Measurements published in patent US20160272683A1 (Novo Nordisk, published 2016).
Numbered stars: 1 amine (or outer) side, 2 acyl side, 3 side chain; on linkers, the order of the positions; unused ones are H or OH. Side chains are listed from the residue outwards. Ends that are not written are not given here. * marks the point of attachment. C20 diacid = O=C(O)CCCCCCCCCCCCCCCCCCC(=O)*; C18 diacid = O=C(O)CCCCCCCCCCCCCCCCC(=O)*; γGlu = O=C(O)[C@H](CCC(=O)[*:2])N[*:1]

T1: human calcitonin receptor (human, UniProt P30988 25-474)
T1 construct: whole, on cells; Assay VII: membranes on SPA beads; also called hCT-R; hCTR
T1 sequence (looked up): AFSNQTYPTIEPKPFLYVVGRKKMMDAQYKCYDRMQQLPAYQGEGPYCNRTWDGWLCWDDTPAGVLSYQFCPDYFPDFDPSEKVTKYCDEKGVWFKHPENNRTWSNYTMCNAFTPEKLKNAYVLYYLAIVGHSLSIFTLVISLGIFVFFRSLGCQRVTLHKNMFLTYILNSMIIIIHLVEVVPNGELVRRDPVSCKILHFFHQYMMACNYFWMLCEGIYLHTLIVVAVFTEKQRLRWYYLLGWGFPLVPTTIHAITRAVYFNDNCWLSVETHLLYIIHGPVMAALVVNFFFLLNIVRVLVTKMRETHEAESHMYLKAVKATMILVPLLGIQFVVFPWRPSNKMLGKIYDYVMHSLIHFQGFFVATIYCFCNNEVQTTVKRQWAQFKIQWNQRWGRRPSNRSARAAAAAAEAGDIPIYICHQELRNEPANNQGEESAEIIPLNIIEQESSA

T2: human amylin receptor (amylin 3(a) receptor: human calcitonin receptor with RAMP-3) (human, UniProt P30988 25-474; O60896 24-148, limits assumed)
T2 construct: whole, on cells; Assay V: membranes of the Amylin 3(a)/CRE-luc BHK cells on SPA beads; also called hAmylin-R
T2 sequence (looked up) 1: T1 sequence (looked up)
T2 sequence (looked up) 2: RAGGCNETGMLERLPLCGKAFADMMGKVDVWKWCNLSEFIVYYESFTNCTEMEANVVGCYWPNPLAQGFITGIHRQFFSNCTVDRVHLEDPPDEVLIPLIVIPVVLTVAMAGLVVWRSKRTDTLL

B1: [N-terminal(C20 diacid-gGlu), des1, 30S, 31G, 33Y]mimylin (peptide)
peptide: {C20 diacid-γGlu}-ASELSTAALGRLSAELHELATLPRTETGSGSY-NH2
SMILES: CC(C)C[C@H](NC(=O)[C@H](C)NC(=O)[C@H](C)NC(=O)[C@@H](NC(=O)[C@H](CO)NC(=O)[C@H](CC(C)C)NC(=O)[C@H](CCC(=O)O)NC(=O)[C@H](CO)NC(=O)[C@H](C)NC(=O)CC[C@H](NC(=O)CCCCCCCCCCCCCCCCCCC(=O)O)C(=O)O)[C@@H](C)O)C(=O)NCC(=O)N[C@@H](CCCNC(=N)N)C(=O)N[C@@H](CC(C)C)C(=O)N[C@@H](CO)C(=O)N[C@@H](C)C(=O)N[C@@H](CCC(=O)O)C(=O)N[C@@H](CC(C)C)C(=O)N[C@@H](Cc1c[nH]cn1)C(=O)N[C@@H](CCC(=O)O)C(=O)N[C@@H](CC(C)C)C(=O)N[C@@H](C)C(=O)N[C@H](C(=O)N[C@@H](CC(C)C)C(=O)N1CCC[C@H]1C(=O)N[C@@H](CCCNC(=N)N)C(=O)N[C@H](C(=O)N[C@@H](CCC(=O)O)C(=O)N[C@H](C(=O)NCC(=O)N[C@@H](CO)C(=O)NCC(=O)N[C@@H](CO)C(=O)N[C@@H](Cc1ccc(O)cc1)C(N)=O)[C@@H](C)O)[C@@H](C)O)[C@@H](C)O
notes: mimylin derivative; des1 = residue 1 deleted; also called Ex. #59; 59
B2: [N-terminal(acetyl), des1, 19K(C20 diacid-gGlu), 30S, 31G]mimylin (peptide)
peptide: Ac-ASELSTAALGRLSAELHK([γGlu-C20 diacid])LATLPRTETGSGSP-NH2
notes: mimylin derivative; des1 = residue 1 deleted; also called Ex. #70; 70
B3: [des1, 4K(C20 diacid-gGlu), 30S, 31G]mimylin (peptide)
peptide: ASK([γGlu-C20 diacid])LSTAALGRLSAELHELATLPRTETGSGSP-NH2
modifications: N-terminus assumed
SMILES: CC(C)C[C@H](NC(=O)[C@H](C)NC(=O)[C@H](C)NC(=O)[C@@H](NC(=O)[C@H](CO)NC(=O)[C@H](CC(C)C)NC(=O)[C@H](CCCCNC(=O)CC[C@H](NC(=O)CCCCCCCCCCCCCCCCCCC(=O)O)C(=O)O)NC(=O)[C@H](CO)NC(=O)[C@H](C)N)[C@@H](C)O)C(=O)NCC(=O)N[C@@H](CCCNC(=N)N)C(=O)N[C@@H](CC(C)C)C(=O)N[C@@H](CO)C(=O)N[C@@H](C)C(=O)N[C@@H](CCC(=O)O)C(=O)N[C@@H](CC(C)C)C(=O)N[C@@H](Cc1c[nH]cn1)C(=O)N[C@@H](CCC(=O)O)C(=O)N[C@@H](CC(C)C)C(=O)N[C@@H](C)C(=O)N[C@H](C(=O)N[C@@H](CC(C)C)C(=O)N1CCC[C@H]1C(=O)N[C@@H](CCCNC(=N)N)C(=O)N[C@H](C(=O)N[C@@H](CCC(=O)O)C(=O)N[C@H](C(=O)NCC(=O)N[C@@H](CO)C(=O)NCC(=O)N[C@@H](CO)C(=O)N1CCC[C@H]1C(N)=O)[C@@H](C)O)[C@@H](C)O)[C@@H](C)O
notes: mimylin derivative; des1 = residue 1 deleted; also called Ex. #52; 52
B4: [N-terminal(acetyl), des1, 4K(C20 diacid-gGlu), 30S, 31G]mimylin (peptide)
peptide: Ac-ASK([γGlu-C20 diacid])LSTAALGRLSAELHELATLPRTETGSGSP-NH2
notes: mimylin derivative; des1 = residue 1 deleted; also called Ex. #68; 68
B5: [des1, 19K(C20 diacid-gGlu), 30S, 31G]mimylin (peptide)
peptide: ASELSTAALGRLSAELHK([γGlu-C20 diacid])LATLPRTETGSGSP-NH2
modifications: N-terminus assumed
SMILES: CC(C)C[C@H](NC(=O)[C@H](C)NC(=O)[C@H](C)NC(=O)[C@@H](NC(=O)[C@H](CO)NC(=O)[C@H](CC(C)C)NC(=O)[C@H](CCC(=O)O)NC(=O)[C@H](CO)NC(=O)[C@H](C)N)[C@@H](C)O)C(=O)NCC(=O)N[C@@H](CCCNC(=N)N)C(=O)N[C@@H](CC(C)C)C(=O)N[C@@H](CO)C(=O)N[C@@H](C)C(=O)N[C@@H](CCC(=O)O)C(=O)N[C@@H](CC(C)C)C(=O)N[C@@H](Cc1c[nH]cn1)C(=O)N[C@@H](CCCCNC(=O)CC[C@H](NC(=O)CCCCCCCCCCCCCCCCCCC(=O)O)C(=O)O)C(=O)N[C@@H](CC(C)C)C(=O)N[C@@H](C)C(=O)N[C@H](C(=O)N[C@@H](CC(C)C)C(=O)N1CCC[C@H]1C(=O)N[C@@H](CCCNC(=N)N)C(=O)N[C@H](C(=O)N[C@@H](CCC(=O)O)C(=O)N[C@H](C(=O)NCC(=O)N[C@@H](CO)C(=O)NCC(=O)N[C@@H](CO)C(=O)N1CCC[C@H]1C(N)=O)[C@@H](C)O)[C@@H](C)O)[C@@H](C)O
notes: mimylin derivative; des1 = residue 1 deleted; also called Ex. #54; 54
B6: [N-terminal(acetyl), des1, 16K(C20 diacid-gGlu), 30S, 31G]mimylin (peptide)
peptide: Ac-ASELSTAALGRLSAK([γGlu-C20 diacid])LHELATLPRTETGSGSP-NH2
notes: mimylin derivative; des1 = residue 1 deleted; also called Ex. #69; 69
B7: [des1, 16K(C20 diacid-gGlu), 30S, 31G]mimylin (peptide)
peptide: ASELSTAALGRLSAK([γGlu-C20 diacid])LHELATLPRTETGSGSP-NH2
modifications: N-terminus assumed
SMILES: CC(C)C[C@H](NC(=O)[C@H](C)NC(=O)[C@H](C)NC(=O)[C@@H](NC(=O)[C@H](CO)NC(=O)[C@H](CC(C)C)NC(=O)[C@H](CCC(=O)O)NC(=O)[C@H](CO)NC(=O)[C@H](C)N)[C@@H](C)O)C(=O)NCC(=O)N[C@@H](CCCNC(=N)N)C(=O)N[C@@H](CC(C)C)C(=O)N[C@@H](CO)C(=O)N[C@@H](C)C(=O)N[C@@H](CCCCNC(=O)CC[C@H](NC(=O)CCCCCCCCCCCCCCCCCCC(=O)O)C(=O)O)C(=O)N[C@@H](CC(C)C)C(=O)N[C@@H](Cc1c[nH]cn1)C(=O)N[C@@H](CCC(=O)O)C(=O)N[C@@H](CC(C)C)C(=O)N[C@@H](C)C(=O)N[C@H](C(=O)N[C@@H](CC(C)C)C(=O)N1CCC[C@H]1C(=O)N[C@@H](CCCNC(=N)N)C(=O)N[C@H](C(=O)N[C@@H](CCC(=O)O)C(=O)N[C@H](C(=O)NCC(=O)N[C@@H](CO)C(=O)NCC(=O)N[C@@H](CO)C(=O)N1CCC[C@H]1C(N)=O)[C@@H](C)O)[C@@H](C)O)[C@@H](C)O
notes: mimylin derivative; des1 = residue 1 deleted; also called Ex. #53; 53
B8: [N-terminal(C18 diacid-gGlu), des1, 6T, 9V, 14T, 21E, 30T, 31G, 32T]mimylin (peptide)
peptide: {C18 diacid-γGlu}-ASELTTAVLGRLTAELHELETLPRTETGTGTP-NH2
SMILES: CC(C)C[C@H](NC(=O)[C@H](CCC(=O)O)NC(=O)[C@H](C)NC(=O)[C@@H](NC(=O)[C@H](CC(C)C)NC(=O)[C@H](CCCNC(=N)N)NC(=O)CNC(=O)[C@H](CC(C)C)NC(=O)[C@@H](NC(=O)[C@H](C)NC(=O)[C@@H](NC(=O)[C@@H](NC(=O)[C@H](CC(C)C)NC(=O)[C@H](CCC(=O)O)NC(=O)[C@H](CO)NC(=O)[C@H](C)NC(=O)CC[C@H](NC(=O)CCCCCCCCCCCCCCCCC(=O)O)C(=O)O)[C@@H](C)O)[C@@H](C)O)C(C)C)[C@@H](C)O)C(=O)N[C@@H](Cc1c[nH]cn1)C(=O)N[C@@H](CCC(=O)O)C(=O)N[C@@H](CC(C)C)C(=O)N[C@@H](CCC(=O)O)C(=O)N[C@H](C(=O)N[C@@H](CC(C)C)C(=O)N1CCC[C@H]1C(=O)N[C@@H](CCCNC(=N)N)C(=O)N[C@H](C(=O)N[C@@H](CCC(=O)O)C(=O)N[C@H](C(=O)NCC(=O)N[C@H](C(=O)NCC(=O)N[C@H](C(=O)N1CCC[C@H]1C(N)=O)[C@@H](C)O)[C@@H](C)O)[C@@H](C)O)[C@@H](C)O)[C@@H](C)O
notes: mimylin derivative; des1 = residue 1 deleted

What was measured:
[1] = target: T1, human calcitonin receptor; experiment: SPA competition vs 125I-calcitonin, membranes with human CTR (Assay VII)
Description: The binding assay was performed using scintillation proximity assay (SPA) beads (RPNQ0001) from PerkinElmer® and cell membranes prepared from a BHK tk'ts 13 cell line was stably transfected with the human calcitonin receptor and a CRE-responsive luciferase reporter gene. Membranes were prepared in the following way; the cells were rinsed with PBS and incubated with Versene for approximately 5 min before harvesting. The cells were flushed with PBS and the cell-suspension was centrifuged for 5 min at 1000 rpm.
(§1) EDTA (pH 7.4, buffer 2). The resulting pellet was resuspended in buffer 2 and protein concentration was tested (BCA protein Assay, Pierce). The homogenate was kept cold during the whole procedure. The membranes were kept at −80° C. until use. Assay was performed in a 384 well Optiplate (PerkinElmer®) in a total volume of 40 ul. Membranes were mixed with SPA beads. Final concentration of membranes 35 ng/μL final and Final concentration of SPA beads was 0.05 mg/well. Test-compounds were dissolved in DMSO and further diluted in assay buffer (50 mM Hepes, pH 7.4, 1 mM CaCl2, 5 mM MgCl2, 0.1% OA and 0.02% Tween20). […] Samples were analyzed on TopCounter™ (Packard). The IC₅₀ was calculated using (one site binding competition analysis) GraphPad Prism5 as a measure of receptor affinity.

[2] = target: T2, human amylin receptor (amylin 3(a) …); experiment: SPA competition vs 125I-rat amylin, membranes with human CTR + RAMP-3 (Assay V)
Description: as §1, with “The binding assay was performed using scintillation proximity assay (SPA) beads (RPNQ0001) from PerkinElmer and cell membranes from the Amylin 3(a)/CRE-luc cells (as described in Assay (II)) were used. Membranes were prepared in the following way; the cells were rinsed with PBS and incubated with Versene for approximately 5 min before harvesting. The cells were flushed with PBS and the cell-suspension was centrifuged for 5 min at 1000 rpm. […] The” for “EDTA (pH 7.4, buffer 2). The”, “use. The assay” for “use. Assay”, “Optiplate (PerkinElmer)” for “Optiplate (PerkinElmer®)”, “and” for “and Final concentration of”

Binder	IC50 [1] [nM]	IC50 [2] [nM]
B1	0.113	0.243
B2	0.077	0.206
B3	0.136	0.724
B4	0.01	0.05
B5	0.085	0.442
B6	0.046	0.074
B7	0.215	0.114
B8	0.222	0.309
